Experimental findings from patent publication US20140213523A1 (TIVORSAN PHARMACEUTICALS, published 2014) are described below.

The data set deals with the molecule itself. Put plainly: Analytical ultracentrifugation (sedimentation velocity) at three concentrations, 20 mM Tris pH 8, 0.5 M NaCl, 20 °C; self-association of T2-rhBGN (M form to D form). As to the method: FIG. 1. Analytical ultracentrifugation of HIC pool purified from CHO clone 57.
T2-rhBGN was purified from conditioned media of CHO clone 57 and 171 and HEK 293 clone 2 by a combination of anion exchange and hydrophobic interaction (HIC). Analytical ultracentrifugation (AUC) of HIC pool purified from CHO Clone 57 resolved into two sedimentation peaks: M with a sedimentation coefficient: s_{20,w}≈2.88 and D with coefficient s_{20,w}≈4.28 (FIG. 1). […] Experiments were performed at 20° C., in a Beckman Optima XL-I analytical ultracentrifuge. Spin Analytical charcoal upon 12 mm double-sector centerpieces were used in an eight-hole AN 50 Ti rotor at 45,000 rpm. Radial absorption scans were measured at λ=280 nm. Sedfit 12.44 was used for data analysis, with a 68% confidence limit (analyticalultracentrifugation.com). Sedimentation coefficients were corrected to standard s_{20,w} conditions using the experimental buffer density and buffer viscosity as calculated with […] (sednterp.unh.edu). Buffer: 20 mM Tris, pH 8, 0.5M NaCl; viscosity=0.01002 Poise; density=1.004989 g/mL. Partial specific volume, v-bar=0.74413 mL/g calculated from amino acid composition with Sednterp.

B1: T2-rhBGN (T2 recombinant human biglycan) (other)
chain: DEEAAGADTAGVLDPDSVTPTYSAMCPFGCHCHLRVVQCSDLGLKSVPKEISPDTTLLDLQNNDISELRKDDFKGLQHLYALVLVNNKISKIHEKAFSPLRKLQKLYISKNHLVEIPPNLPSSLVELRIHDNRIRKVPKGVFSGLRNMNCIEMGGNPLENSGFEPGAFDGLKLNYLRISEAKLTGIPKDLPETLNELHLDHNKIQAIELEDLLRYSKLYRLGLGHNQIRMIENGSLSFLPTLRELHLDNNKLARVPSGLPDLKLLQVVYLHSNNITKVGVNDFCPMGFGVKRAYYNGISLFNNPVPYWEVQPATFRCVTDRLAIQFGNYKK
modifications: N-linked glycans (M and D forms differ in N-glycan profile); no GAG side chains
notes: Purified from conditioned medium of CHO clone 57 by anion exchange and HIC; The pool is a mixture of the M form (generally monomeric) and the D form (generally dimeric); No tags are stated; also called HIC pool; M-rhBGN
One may read the Kd as the free concentration of one partner at which half of the binding sites on the other are occupied at equilibrium, for simple one-to-one binding. On to B1, for which the Kd was approximately 50 µM.
